Data from patent US20250236680A1 (XI AN ORIMAB BIOTECHNOLOGY, published 2025).
Residue numbers refer to the chain shown, from its start. Blank lines part the entries; values can stand above or below the binder they belong to.

Tests used:
[1] = biological target: PSMA on PSMA+CHO cells (UniProt Q04609 1-750, limits assumed); experiment: cell-based or functional assay
[2] = biological target: T1, biotinylated PSMA extracellular domain recombinant protein (Acrobiosystems) (Homo sapiens (Human), UniProt Q04609 44-750, biotinylated); experiment: capture ELISA, curve fit in GraphPad Prism
T1 construct: Bought reagent
T1 sequence (Q04609 44-750): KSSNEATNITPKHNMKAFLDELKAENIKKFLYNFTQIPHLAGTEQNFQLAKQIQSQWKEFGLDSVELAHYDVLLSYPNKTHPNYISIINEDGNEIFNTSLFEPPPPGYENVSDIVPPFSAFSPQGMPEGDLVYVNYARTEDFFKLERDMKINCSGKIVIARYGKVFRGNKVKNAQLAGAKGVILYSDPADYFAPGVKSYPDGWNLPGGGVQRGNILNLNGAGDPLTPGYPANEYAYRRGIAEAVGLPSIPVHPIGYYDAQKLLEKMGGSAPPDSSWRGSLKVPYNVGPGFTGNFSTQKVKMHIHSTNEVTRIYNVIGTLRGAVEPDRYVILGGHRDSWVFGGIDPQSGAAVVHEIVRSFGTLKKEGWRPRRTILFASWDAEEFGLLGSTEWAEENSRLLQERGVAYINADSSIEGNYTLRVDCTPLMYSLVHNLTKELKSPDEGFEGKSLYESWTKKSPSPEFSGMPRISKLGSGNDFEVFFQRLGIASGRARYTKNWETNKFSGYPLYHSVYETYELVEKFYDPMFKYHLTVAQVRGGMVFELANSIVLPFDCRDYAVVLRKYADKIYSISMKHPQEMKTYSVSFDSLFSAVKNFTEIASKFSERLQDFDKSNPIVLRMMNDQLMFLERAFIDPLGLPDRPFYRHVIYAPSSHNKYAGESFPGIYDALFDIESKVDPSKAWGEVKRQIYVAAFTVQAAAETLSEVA
Description: (§1) Goat anti-human-IgG1 (Fc specific) (Jackson ImmunoResearch Laboratories, Inc, Pennsylvania, USA) was coated on wells of ELISA plate in 100 μl PBS at the concentration of 3 μg/ml, 4° C. overnight. The wells were washed twice with 200 μl PBST (PBS, pH7.4, containing 0.05% Tween 20) and then blocked with 400 μl PBS™ (PBST containing 5% dry milk) for 2 h at room temperature. Three-fold serially diluted PSMAb and PSMAbLm starting from 6 nM down to 0.1 pM in 50 μl PBS™ were then incubated with the wells respectively for 1 h at room temperature. After 6 washes with PBST, the wells were incubated with 50 μl biotinylated PSMA extracellular domain recombinant protein (Acrobiosystems, Delaware, USA) at the concentration of 0.5 μg/ml in PBS™ for 1 h at room temperature. After incubation, the wells were washed 6 times using PBST and incubated with 50 μl 1:1000 diluted streptavidin-HRP (BD bioscience, California, USA) in PBS™. After final 6 washes with PBST, colorimetric signals were developed by incubation with 70 μl 3, 3′, 5, 5′-tetramethylbenzidine (TMB, eBioscience, CA, USA) and for 20 min at room temperature, then stopped by incubation with 70 μl 1 M H₂SO₄. The absorbance was measured at 450 nm using a microplate reader (VWR, PA, USA). The binding curves were analyzed using GraphPad Prism 5.0 software.
(§2) CDR3 regions of both heavy and light chains are pivotal for antigen binding. […]

[3] = biological target: T1, biotinylated PSMA extracellular domain …; experiment: capture ELISA
Description: as §1, §2

Chain of PSMA on PSMA+CHO cells (Q04609 whole entry, the tested form may be a part): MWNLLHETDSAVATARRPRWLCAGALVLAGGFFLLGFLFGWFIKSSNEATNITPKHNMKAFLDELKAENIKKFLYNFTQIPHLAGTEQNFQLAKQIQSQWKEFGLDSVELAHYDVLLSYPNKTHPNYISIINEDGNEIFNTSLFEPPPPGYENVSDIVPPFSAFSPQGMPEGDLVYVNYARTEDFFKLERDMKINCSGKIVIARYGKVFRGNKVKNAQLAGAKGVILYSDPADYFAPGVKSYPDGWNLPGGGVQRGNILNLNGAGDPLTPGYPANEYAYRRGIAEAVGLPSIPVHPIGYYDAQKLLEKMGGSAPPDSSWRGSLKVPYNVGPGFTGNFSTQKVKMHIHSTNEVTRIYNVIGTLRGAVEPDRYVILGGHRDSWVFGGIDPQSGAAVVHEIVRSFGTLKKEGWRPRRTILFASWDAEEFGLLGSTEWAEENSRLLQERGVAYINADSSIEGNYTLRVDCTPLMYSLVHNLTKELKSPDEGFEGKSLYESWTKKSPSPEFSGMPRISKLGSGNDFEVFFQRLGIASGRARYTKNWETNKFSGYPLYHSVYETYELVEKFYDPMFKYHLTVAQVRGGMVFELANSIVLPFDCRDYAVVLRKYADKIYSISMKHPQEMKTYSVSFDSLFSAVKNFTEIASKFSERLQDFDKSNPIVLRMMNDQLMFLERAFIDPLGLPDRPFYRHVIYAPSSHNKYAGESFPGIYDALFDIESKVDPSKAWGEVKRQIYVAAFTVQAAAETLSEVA

Luciferase signal increase fold (ADCC, CD16-Jurkat reporter cells) at 0 pg/ml antibody [1]: 1.04 fold
Luciferase signal increase fold (ADCC, CD16-Jurkat reporter cells) at 2.286 pg/ml antibody [1]: 18.4 fold
Luciferase signal increase fold (ADCC, CD16-Jurkat reporter cells) at 6.859 pg/ml antibody [1]: 30 fold
Luciferase signal increase fold (ADCC, CD16-Jurkat reporter cells) at 20.576 pg/ml antibody [1]: 43.1 fold
Kd [2]: 0.109 nM
B1: PSMAb (parent anti-PSMA full antibody) (antibody, human IgG1, lambda, V domains shown)
VH: EVQLVESGGALAKPGGSLRLSCAASGFTLSGYAMHWVRQAPGKGLEWVAVISYDGSNKYYADSVKGRFTVSRDNSKNTLFLQMNSLRPEDTAVYYCAKGLTWGLGDNDALDIWGPGTTVTVSS
VL: QSVLTQPPSVSGAPGQSVIISCTGSSSNIGAGSHVHWYQQVPGTAPKLLIYENTNRPSGVPDRFSGSKSGTSGSLAITGLQPEDEADYYCATWDDSLNGVIFGGGTKATVLG
notes: IgG1 with lambda constant region; also called PSMAb-WT; PMSAb-WT

Luciferase signal increase fold (ADCC, CD16-Jurkat reporter cells) at 0 pg/ml antibody [1]: 0.859 fold
Luciferase signal increase fold (ADCC, CD16-Jurkat reporter cells) at 2.286 pg/ml antibody [1]: 33 fold
Luciferase signal increase fold (ADCC, CD16-Jurkat reporter cells) at 6.859 pg/ml antibody [1]: 52.9 fold
Luciferase signal increase fold (ADCC, CD16-Jurkat reporter cells) at 20.576 pg/ml antibody [1]: 55.5 fold
B2: PSMAb-AF (afucosylated PSMAb) (antibody, human IgG1, lambda, V domains shown)
VH: B1 VH
VL: B1 VL
modifications: afucosylated (expressed in Fut8-/- CHO-K1)

Luciferase signal increase fold (ADCC, CD16-Jurkat reporter cells) at 0 pg/ml antibody [1]: 1.1 fold
Luciferase signal increase fold (ADCC, CD16-Jurkat reporter cells) at 2.286 pg/ml antibody [1]: 38.9 fold
Luciferase signal increase fold (ADCC, CD16-Jurkat reporter cells) at 6.859 pg/ml antibody [1]: 56.6 fold
Luciferase signal increase fold (ADCC, CD16-Jurkat reporter cells) at 20.576 pg/ml antibody [1]: 54.7 fold
B3: PSMAbLm-AF (afucosylated PSMAb with N=>S mutation in light chain CDR3 region) (antibody, human IgG1, lambda, V domains shown)
VH: B1 VH
VL: B1 VL with N98S
modifications: afucosylated (expressed in Fut8-/- CHO-K1)

fold higher affinity than PSMAb [3]: ~2.3 fold
Kd [2]: 0.0479 nM
B4: PSMAbLm (PSMAb with N to S mutation in light chain CDR3) (antibody, human IgG1, lambda, V domains shown)
VH: B1 VH
VL: B1 VL with N98S
notes: also called PMSAbLm; full antibody from Mut-gy1-2 scFv
